Laboratory results reported in publication PMC4072508, “Genome-Wide Prediction and Validation of Peptides That Bind Human Prosurvival Bcl-2 Proteins” (PLoS Computational Biology, 2014).

T1: Bfl-1, Q16548
T1 chain: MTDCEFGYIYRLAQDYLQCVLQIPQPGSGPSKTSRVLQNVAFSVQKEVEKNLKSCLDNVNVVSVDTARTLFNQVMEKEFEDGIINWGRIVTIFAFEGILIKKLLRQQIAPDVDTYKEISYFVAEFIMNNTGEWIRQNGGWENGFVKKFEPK

T2: Mcl-1, Q07820
T2 chain: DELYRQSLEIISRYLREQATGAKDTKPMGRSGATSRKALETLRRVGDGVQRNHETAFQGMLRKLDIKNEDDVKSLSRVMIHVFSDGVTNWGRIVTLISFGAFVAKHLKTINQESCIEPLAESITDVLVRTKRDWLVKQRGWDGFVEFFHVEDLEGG


Molecular target: Bcl-xL, Q07817
Sequence (Q07817 1-209): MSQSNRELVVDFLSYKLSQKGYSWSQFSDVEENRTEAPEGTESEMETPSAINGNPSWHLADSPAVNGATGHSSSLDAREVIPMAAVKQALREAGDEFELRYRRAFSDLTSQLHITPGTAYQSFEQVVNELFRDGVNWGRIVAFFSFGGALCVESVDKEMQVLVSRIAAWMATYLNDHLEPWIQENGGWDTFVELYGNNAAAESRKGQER
Assay: peptide SPOT array, c-Myc-tagged receptor at 1 uM or 100 nM, anti-c-Myc-Cy3

SPOT signal as a fraction of Bim BH3's signal on the same receptor and array	Binder
0.06	SQEPLEKAQLDALVGDQLIQSHHYAA
0.1	SEIMHSFAKCIEVMLDGCLNNEHFEE
0.07	CHGLRELALNYHLLSDELLLALSSEK
0.05	LNLLMISVAFLRVIGDQLEKLCDSLL [SLC38A8]
0.08	PKKKMTLSEIDQWICDNFPYYREAGS [FOXJ3]
0.82	PAKKMTLSEIYRWILDNFPYYKNAGI
1.03	ISSYMVLAPVDGYLGDRYNRKYLMCG [SPNS1]
0.07	CHGLRELALNYHLLLDELLLALSSEK
0.09	SFLSAHCASHLAWFGDSLTSLSQRLQ [TMEM214]
0.06	SQEPLEKAQLLALVGDQLIQSHHYAA

More lines, now with the values behind:

Binder	SPOT signal as a fraction of Bim BH3's signal on the same receptor and array
VLELHPGAQRDHIGCDEVYYLGEGEA [HEXDC]	0.05
TAGLRPGARLLRVCLQTLPSLRPEAA [SIPA1]	0.86
PAKKMTLSEIDRWICDNFPYYKNAGI	0.58
SEIMHSFAKCDEVMGDGCLNNEHFEE	0.09
PALLVHWAKCLQKMLRGLNSSYDQQE [RGPD2]	0.55
APGEEDLCAAFNVILDNVGKDWRRLA [FADD]	0.06
DSLLWKLAGLLRESGDVVLSGCSTLS [STK11IP]	0.06
NNNMDVESRTMATMGDTLASRGLLDA [SEC16A]	0.04
ADVHGIWSRLFCDFLDEFEVLDTTGE [UBA6]	0.06
VLAPVQLGKWLVLFCDEINLPDMDKY [DYNC1H1]	0.36
LWAAQRYGRELRRMLDEFVDSFKKGL [BAD]	0.49
VHKHSRLAEVLQLGSDILPQYKQEAP [KCNH1]	0.17
MSLFLRVVFSDTMFGDLFEEEYSTVS [USP40]	0.06
LLDFFMVSILFSKLGDLLHKLQFVLT [PCNXL2]	0.11
MPYMEAVIHEIQRFGDVIPMSLARRV [CYP2A6]	0.15
YIVLGLRKTTLQKVGKEVAELVGRVG [NLRX1]	0.36
SKEVAILCSFDLGLGDSCFNTQLLSI [MFSD11]	0.08
SWFIQSLCAMDKQYADKLEFMHILTR [CASP3]	0.08
GYPFNDVCQWFIDRADLIFVVFDPTK [SRL]	0.07
PYLSKHRADRMRRLLDFLNQESFDLA [SMPD2]	0.67
LSIIYTLVEIFQNILDTNLADFTAGL [SLC26A4]	0.06
MEMYQPSAVVLQCGLDSLSGDRLGCF [HDAC2]	0.06

Molecular target: T1, Bfl-1, Q16548
Assay: as above

SPOT signal as a fraction of Bim BH3's signal on the same receptor and array	Binder
0.04	SQEPLEKAQLDALVGDQLIQSHHYAA
0.04	SEIMHSFAKCIEVMLDGCLNNEHFEE
0.04	CHGLRELALNYHLLSDELLLALSSEK
0.05	LNLLMISVAFLRVIGDQLEKLCDSLL [SLC38A8]
0.06	PKKKMTLSEIDQWICDNFPYYREAGS [FOXJ3]
0.45	PAKKMTLSEIYRWILDNFPYYKNAGI
0.68	ISSYMVLAPVDGYLGDRYNRKYLMCG [SPNS1]
0.04	CHGLRELALNYHLLLDELLLALSSEK
0.09	SFLSAHCASHLAWFGDSLTSLSQRLQ [TMEM214]
0.04	SQEPLEKAQLLALVGDQLIQSHHYAA

More lines, now with the values behind:

Binder	SPOT signal as a fraction of Bim BH3's signal on the same receptor and array
VLELHPGAQRDHIGCDEVYYLGEGEA [HEXDC]	0.04
TAGLRPGARLLRVCLQTLPSLRPEAA [SIPA1]	0.57
PAKKMTLSEIDRWICDNFPYYKNAGI	0.26
SEIMHSFAKCDEVMGDGCLNNEHFEE	0.03
PALLVHWAKCLQKMLRGLNSSYDQQE [RGPD2]	0.39
APGEEDLCAAFNVILDNVGKDWRRLA [FADD]	0.04
DSLLWKLAGLLRESGDVVLSGCSTLS [STK11IP]	0.04
NNNMDVESRTMATMGDTLASRGLLDA [SEC16A]	0.06
ADVHGIWSRLFCDFLDEFEVLDTTGE [UBA6]	0.04
VLAPVQLGKWLVLFCDEINLPDMDKY [DYNC1H1]	0.08
LWAAQRYGRELRRMLDEFVDSFKKGL [BAD]	0.42
VHKHSRLAEVLQLGSDILPQYKQEAP [KCNH1]	0.09
MSLFLRVVFSDTMFGDLFEEEYSTVS [USP40]	0.04
LLDFFMVSILFSKLGDLLHKLQFVLT [PCNXL2]	0.06
MPYMEAVIHEIQRFGDVIPMSLARRV [CYP2A6]	0.1
YIVLGLRKTTLQKVGKEVAELVGRVG [NLRX1]	0.26
SKEVAILCSFDLGLGDSCFNTQLLSI [MFSD11]	0.03
SWFIQSLCAMDKQYADKLEFMHILTR [CASP3]	0.05
GYPFNDVCQWFIDRADLIFVVFDPTK [SRL]	0.05
PYLSKHRADRMRRLLDFLNQESFDLA [SMPD2]	0.53
LSIIYTLVEIFQNILDTNLADFTAGL [SLC26A4]	0.03
MEMYQPSAVVLQCGLDSLSGDRLGCF [HDAC2]	0.03

Molecular target: T2, Mcl-1, Q07820
Assay: as above

SPOT signal as a fraction of Bim BH3's signal on the same receptor and array	Binder
0.03	SQEPLEKAQLDALVGDQLIQSHHYAA
0.06	SEIMHSFAKCIEVMLDGCLNNEHFEE
0.06	CHGLRELALNYHLLSDELLLALSSEK
0.05	LNLLMISVAFLRVIGDQLEKLCDSLL [SLC38A8]
0.1	PKKKMTLSEIDQWICDNFPYYREAGS [FOXJ3]
0.42	PAKKMTLSEIYRWILDNFPYYKNAGI
0.69	ISSYMVLAPVDGYLGDRYNRKYLMCG [SPNS1]
0.06	CHGLRELALNYHLLLDELLLALSSEK
0.06	SFLSAHCASHLAWFGDSLTSLSQRLQ [TMEM214]
0.04	SQEPLEKAQLLALVGDQLIQSHHYAA

The next lines start with the binder.

Binder	SPOT signal as a fraction of Bim BH3's signal on the same receptor and array
VLELHPGAQRDHIGCDEVYYLGEGEA [HEXDC]	0.04
TAGLRPGARLLRVCLQTLPSLRPEAA [SIPA1]	0.63
PAKKMTLSEIDRWICDNFPYYKNAGI	0.29
SEIMHSFAKCDEVMGDGCLNNEHFEE	0.04
PALLVHWAKCLQKMLRGLNSSYDQQE [RGPD2]	0.45
APGEEDLCAAFNVILDNVGKDWRRLA [FADD]	0.06
DSLLWKLAGLLRESGDVVLSGCSTLS [STK11IP]	0.05
NNNMDVESRTMATMGDTLASRGLLDA [SEC16A]	0.03
ADVHGIWSRLFCDFLDEFEVLDTTGE [UBA6]	0.05
VLAPVQLGKWLVLFCDEINLPDMDKY [DYNC1H1]	0.05
LWAAQRYGRELRRMLDEFVDSFKKGL [BAD]	0.41
VHKHSRLAEVLQLGSDILPQYKQEAP [KCNH1]	0.21
MSLFLRVVFSDTMFGDLFEEEYSTVS [USP40]	0.05
LLDFFMVSILFSKLGDLLHKLQFVLT [PCNXL2]	0.09
MPYMEAVIHEIQRFGDVIPMSLARRV [CYP2A6]	0.1
YIVLGLRKTTLQKVGKEVAELVGRVG [NLRX1]	0.33
SKEVAILCSFDLGLGDSCFNTQLLSI [MFSD11]	0.04
SWFIQSLCAMDKQYADKLEFMHILTR [CASP3]	0.06
GYPFNDVCQWFIDRADLIFVVFDPTK [SRL]	0.06
PYLSKHRADRMRRLLDFLNQESFDLA [SMPD2]	0.52
LSIIYTLVEIFQNILDTNLADFTAGL [SLC26A4]	0.05
MEMYQPSAVVLQCGLDSLSGDRLGCF [HDAC2]	0.04
